Test results reported in article PMC11189300.

B1: Mis12 complex full length: MIS12, PMF1, NSL1, DSN1 mutant PMF1:R195E; PMF1:V198L; DSN1:L290F [human] / KNL1 residues 2,026–2,342 [human] (parent)
chain 1: SAQNEREKLQIKIDEMDKILKKIDNCLTEMETETKNLEDEEKNNPVEEWDSEMRAAEKELEQLKTEEEELQRNLLELEVQKEQTLAQIDFMQKQRNRTEELLDQLSLSEWDVVEWSDDQAVFTFVYDTIQLTITFEESVVGFPFLDKRYRKIVDVNFQSLLDEDQAPPSSLLVHKLIFQYVEEKESWKKTCTTQHQLPKMLEEFSLVVHHCRLLGEEIEYLKRWGPNYNLMNIDINNNELRLLFSSSAAFAKFEITLFLSAYYPSVPLPSTIQNHVGNTSQDDIATILSKVPLENNYLKNVVKQIYQDLFQDCHFYH
chain 2: MSVDPMTYEAQFFGFTPQTCMLRIYIAFQDYLFEVMQAVEQVILKKLDGIPDCDISPVQIRKCTEKFLCFMKGHFDNLFSKMEQLFLQLILRIPSNILLPEDKCKETPYSEEDFQHLQKEIEQLQEKYKTELCTKQALLAELEEQKIVQAKLKQTLTFFDELHNVGRDHGTSDFRESLVSLVQNSRKLQNIRDNVEKESKRLKIS
chain 3: MAEASSANLGSGCEEKRHEGSSSESVPPGTTISRVKLLDTMVDTFLQKLVAAGSYQRFTDCYKCFYQLQPAMTQQIYDKFIAQLQTSIREEISDIKEEGNLEAVLNALDKIVEEGKVRKEPAWRPSGIPEKDLHSVMAPYFLQQRDTLRRHVQKQEAENQQLADAVLAGRRQVEELQLQVQAQQQAWQALHREQRELVAVLREPE
chain 4: MAGSPELVVLDPPWDKELAAGTESQALVSATPREDFRVRCTSKRAVTEMLQLCGRFVQKLGDALPEEIREPALRDAQWTFESAVQENISINGQAWQEASDNCFMDSDIKVLEDQFDEIIVDIATKRKQYPRKILECVIKTIKAKQEILKQYHPVVHPLDLKYDPDPAPHMENLKCRGETVAKEISEAMKSLPALIEQGEGFSQVLRMQPVIHLQRIHQEVFSSCHRKPDAKPENFITQIETTPTETASRKTSDMVLKRKQTKDCPQRKWYPLRPKKINLDT
chain 5: MTSVTRSEIIDEKGPVMSKTHDHQLESSLSPVEVFAKTSASLEMNQGVSEERIHLGSSPKKGGNCDLSHQERLQSKSLHLSPQEQSASYQDRRQSWRRASMKETNRRKSLHPIHQGITELSRSISVDLAESKRLGCLLLSSFQFSIQKLEPFLRDTKGFSLESFRAKASSLSEELKHFADGLETDGTLQKCFEDSNGKASDFSLEASVAEMKEYITKFSLERQTWDQLLLHYQQEAKEILSRGSTEAKITEVKVEPMTYLGSSQNEVLNTKPDYQKILQNQSKVFDCMELVMDELQGSVKQLQAFMDESTQCFQKVSVQLGKRSMQQLDPSPARKLLKLQLQNPPAIHGSGSGSCQ

Variants of: B1
Assay: ITC
Details: with KNL1 residues 2,026–2,342 [human]; syringe KNL1^WT; cell Mis12C^M2

Variant	screen value
chain 3 R195E V198L, chain 5 L290F	-14.3

Same assay, conditions: with KNL1 residues 2,026–2,342 [human]; syringe KNL1^WT; cell Mis12C^M2; parent: -12

Variant	dG
chain 3 R195E V198L, chain 5 L290F	-10.4

Same assay, conditions: with KNL1 residues 2,026–2,342 [human]; syringe KNL1^WT; cell Mis12C^M1

Variant	screen value
chain 3 R195A V198L, chain 5 L290F	5.83

Same assay, conditions: with Mis12 complex (Mis12C), syringe KNL1^M2, cell Mis12C^WT

Variant	screen value
chain 1 M231A S247W F250A K252E	-16.1

Same assay, conditions: with Mis12 complex (Mis12C), syringe KNL1^M2, cell Mis12C^WT, parent: -12

Variant	dG
chain 1 M231A S247W F250A K252E	-9.5

Same assay, conditions: with Mis12 complex (Mis12C), syringe KNL1^M1, cell Mis12C^WT

Variant	screen value
chain 1 M231A S247W F250A K252A	1.2

Same assay, conditions: with Mis12 complex (Mis12C), syringe KNL1^M1, cell Mis12C^WT, parent: -12

Variant	dG
chain 1 M231A S247W F250A K252A	-9.35
